Legend:
[1] = molecular target: FimF domain, β-strand-complemented and oxidized, in the array polyprotein (I91)2-FimF-FimG-FimH-(I91)2 (E. coli) (UniProt P08189); assay: single-molecule force spectroscopy (AFM, force-ramp)
[2] = molecular target: FimF domain of the self-complemented construct FimF-DS_(FimA), oxidized (FimFS-S), in the polyprotein (I91)2-FimF-(I91)2 (E. coli) (UniProt P08189); assay: single-molecule force spectroscopy (AFM, force-extension)
[3] = molecular target: FimH (lectin and pilin subdomains), β-strand-complemented and oxidized, in the array polyprotein (I9 (E. coli) (UniProt P08191)); assay: single-molecule force spectroscopy (AFM, force-ramp)
[4] = molecular target: FimH (lectin subdomain FimHL and pilin subdomain FimHP) of the self-complemented construct FimH-DS_( (E. coli) (UniProt P08191)); assay: single-molecule force spectroscopy (AFM, force-extension)
[5] = molecular target: FimA domain of the self-complemented construct FimA-DS_(FimA), oxidized (FimAS-S), in the polyprotein (I91)2-FimA-(I91)2 (E. coli) (UniProt P04128); assay: as above
[6] = molecular target: FimG domain of the self-complemented construct FimG-DS_(FimF), oxidized (FimGS-S), in the polyprotein (I91)2-FimG-(I91)2 (E. coli); assay: as above
[7] = molecular target: FimG domain, β-strand-complemented and oxidized, in the array polyprotein (I91)2-FimF-FimG-FimH-(I91)2 (E. coli); assay: single-molecule force spectroscopy (AFM, force-ramp)
[8] = molecular target: FimG domain of the self-complemented construct FimG-DS_(FimF), reduced (FimG_(SH-SH)), in the polyprotein (I91)2-FimG-(I91)2 (E. coli)

UniProt P04128, sequence (P04128 24-182): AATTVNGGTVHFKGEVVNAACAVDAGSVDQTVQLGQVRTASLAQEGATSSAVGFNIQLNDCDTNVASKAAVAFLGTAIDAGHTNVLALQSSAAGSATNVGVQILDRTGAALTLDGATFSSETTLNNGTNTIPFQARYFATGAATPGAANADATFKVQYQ
FimG domain of the self-complemented construct FimG-DS_(FimF), oxidized (FimGS-S), in the polyprotein (I91)2-FimG-(I91)2 (E. coli), sequence (P08190 24-167): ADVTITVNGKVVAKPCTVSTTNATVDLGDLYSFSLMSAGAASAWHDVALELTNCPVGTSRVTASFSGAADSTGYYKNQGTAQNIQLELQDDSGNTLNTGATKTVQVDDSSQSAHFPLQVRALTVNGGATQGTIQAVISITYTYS
FimG domain, β-strand-complemented and oxidized, in the array polyprotein (I91)2-FimF-FimG-FimH-(I91)2 (E. coli), sequence (P08190 24-167): as above

donor β-strand of FimA complementing FimF in the array polyprotein (I91)2-FimF-FimG-FimH-(I91)2 (peptide)
unfolding force in force-ramp (rupture of the β-strand interaction) [1]: 281 pN

donor β-strand of FimA (DS_(FimA)) linked by DNKQ to the C-terminus of FimF in (I91)2-FimF-(I91)2 (peptide)
unfolding force (rupture of the β-strand interaction) [2]: 418 pN

donor β-strand of FimG complementing FimH in the array polyprotein (I91)2-FimF-FimG-FimH-(I91)2 (from UniProt P08190) (peptide)
unfolding force of FimHP in force-ramp (rupture of the β-strand interaction) [3]: 238 pN

donor β-strand of FimG (DS_(FimG)) linked by DNKQ to the C-terminus of FimH in (I91)2-FimH-(I91)2 (from UniProt P08190) (peptide)
rupture force of FimHP (rupture of the β-strand interaction) [4]: 362 pN

donor β-strand of FimA (DS_(FimA)) linked by DNKQ to the C-terminus of FimA in (I91)2-FimA-(I91)2 (from UniProt P04128) (peptide)
unfolding force (rupture of the β-strand interaction) [5]: 527 pN

B1: donor β-strand of FimF (DS_(FimF)) linked by DNKQ to the C-terminus of FimG in (I91)2-FimG-(I91)2 (peptide)
chain: DNKQADSTITIRGYVRDNGCSVAAESTNFTVDLMENAAKQFNNIGATTPVVPFRILLSPCGNAVSAVKVGFTGVADSHNANLLALENTVSAASGLGIQLLNEQQNQIPLNAPSSALSWTTLTPGKPNTLNFYARLMATQVPVTAGHINATATFTLEYQ
unfolding force (rupture of the β-strand interaction) [6]: 431 pN

B2: donor β-strand of FimF complementing FimG in the array polyprotein (I91)2-FimF-FimG-FimH-(I91)2 (peptide)
chain: B1 chain
unfolding force in force-ramp (rupture of the β-strand interaction) [7]: 261 pN

B3: DsbA oxidoreductase (enzyme)
chain: AQYEDGKQYTTLEKPVAGAPQVLEFFSFFCPHCYQFEEVLHISDNVKKKLPEGVKMTKYHVNFMGGDLGKDLTQAWAVAMALGVEDKVTVPLFEGVQKTQTIRSASDIRDVFINAGIKGEEYDAAWNSFVVKSLVAQQEKAAADVQLRGVPAMFVNGKYQLNPQGMDTSNMDVFVQQYADTVKYLSEKK
refolding probability of FimG in force-clamp AFM after 45 s at 0 pN, with DsbA (100 μM) against reduced FimG alone (around 20%) [8]: 70%
